In patent US20110053851A1:

Molecular target: human FXa (human) (UniProt P00742)
Assay: cell-based or functional assay

Sequence of UniProt P00742 (P00742 41-488 limits assumed): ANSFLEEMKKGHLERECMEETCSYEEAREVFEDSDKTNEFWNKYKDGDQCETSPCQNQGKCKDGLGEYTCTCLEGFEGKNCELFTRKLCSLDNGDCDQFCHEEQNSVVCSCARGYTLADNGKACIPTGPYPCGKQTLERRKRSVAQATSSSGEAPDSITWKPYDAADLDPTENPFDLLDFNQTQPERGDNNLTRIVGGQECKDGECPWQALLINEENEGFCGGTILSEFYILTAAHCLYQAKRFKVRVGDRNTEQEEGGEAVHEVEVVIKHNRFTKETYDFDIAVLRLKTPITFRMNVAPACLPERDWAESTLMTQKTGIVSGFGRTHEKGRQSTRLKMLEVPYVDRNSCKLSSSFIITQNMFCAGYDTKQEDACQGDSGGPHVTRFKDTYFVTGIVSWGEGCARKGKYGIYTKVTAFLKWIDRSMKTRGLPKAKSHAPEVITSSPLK

Substance P. textilis snake venom FV has a CT (ave) (sec), citrated plasma; Fva 10 (1/10), PL 50, Ca 50 of 23.7 s, a CT (ave) (sec), citrated plasma; Fva 10 (1/100), PL 50, Ca 50 of 54.7 s and a CT (ave) (sec), citrated plasma; Fva 25 (1/10), PL 50, Ca 50 of 19.7 s. It also gave a CT (ave) (sec), citrated plasma; Fva 25 (1/100), PL 50, Ca 50 of 41 s, a CT (ave) (sec), citrated plasma; Fva 50 (1/10), PL 0, Ca 50 of 67.5 s and a CT (ave) (sec), citrated plasma; Fva 50 (1/10), PL 50, Ca 50 of 18 s. For the same substance, the CT (ave) (sec), citrated plasma; Fva 50 (1/100), PL 0, Ca 50 was 90.8 s, the CT (ave) (sec), citrated plasma; Fva 50 (1/100), PL 50, Ca 50 was 31.6 s and the CT (ave) (sec), citrated plasma; Fva 50 (1/1000), PL 0, Ca 50 was > 300 s. The CT (ave) (sec), citrated plasma; Fva 50 (1/1000), PL 50, Ca 50 was 68.7 s, the CT (ave) (sec), citrated plasma; Fva (A280 = 1.080) 10, PL 50, Ca 50 was 15 s and the CT (ave) (sec), citrated plasma; Fva (A280 = 1.080) 25, PL 50, Ca 50 was 13.6 s. The CT (ave) (sec), citrated plasma; Fva (A280 = 1.080) 50, PL 0, Ca 50 was 54.3 s, the CT (ave) (sec), citrated plasma; Fva (A280 = 1.080) 50, PL 50, Ca 0 was > 300 s and the CT (ave) (sec), citrated plasma; Fva (A280 = 1.080) 50, PL 50, Ca 50 was 12.7 s. The Citrated Plasma Clotting Time (Sec) at FV 0.7 nM (0 nM FV: 151) was 69 s, the Citrated Plasma Clotting Time (Sec) at FV 7 nM (0 nM FV: 151) was 32 s and the Citrated Plasma Clotting Time (Sec) at FV 70 nM (0 nM FV: 151) was 18 s. For the same substance, the Citrated Plasma Clotting Time (Sec) at FV 700 nM (0 nM FV: 151) was 13 s, the Clotting time (sec) (1), citrated plasma; Fva 10 (1/10), PL 50, Ca 50 was 24.1 s and the Clotting time (sec) (1), citrated plasma; Fva 10 (1/100), PL 50, Ca 50 was 53.3 s. The Clotting time (sec) (1), citrated plasma; Fva 25 (1/10), PL 50, Ca 50 was 19.6 s, the Clotting time (sec) (1), citrated plasma; Fva 25 (1/100), PL 50, Ca 50 was 39.5 s and the Clotting time (sec) (1), citrated plasma; Fva 50 (1/10), PL 0, Ca 50 was 68.9 s. For the same substance, the Clotting time (sec) (1), citrated plasma; Fva 50 (1/10), PL 50, Ca 50 was 18.3 s, the Clotting time (sec) (1), citrated plasma; Fva 50 (1/100), PL 0, Ca 50 was 84.3 s and the Clotting time (sec) (1), citrated plasma; Fva 50 (1/100), PL 50, Ca 50 was 32.3 s. For the same substance, the Clotting time (sec) (1), citrated plasma; Fva 50 (1/1000), PL 0, Ca 50 was > 300 s, the Clotting time (sec) (1), citrated plasma; Fva 50 (1/1000), PL 50, Ca 50 was 69.7 s and the Clotting time (sec) (1), citrated plasma; Fva (A280 = 1.080) 10, PL 50, Ca 50 was 15.2 s. The Clotting time (sec) (1), citrated plasma; Fva (A280 = 1.080) 25, PL 50, Ca 50 was 13.3 s, the Clotting time (sec) (1), citrated plasma; Fva (A280 = 1.080) 50, PL 0, Ca 50 was 54.1 s and the Clotting time (sec) (1), citrated plasma; Fva (A280 = 1.080) 50, PL 50, Ca 0 was > 300 s. The Clotting time (sec) (1), citrated plasma; Fva (A280 = 1.080) 50, PL 50, Ca 50 was 12.6 s, the Clotting time (sec) (2), citrated plasma; Fva 10 (1/10), PL 50, Ca 50 was 23.4 s and the Clotting time (sec) (2), citrated plasma; Fva 10 (1/100), PL 50, Ca 50 was 56 s. The Clotting time (sec) (2), citrated plasma; Fva 25 (1/10), PL 50, Ca 50 was 19.8 s, the Clotting time (sec) (2), citrated plasma; Fva 25 (1/100), PL 50, Ca 50 was 42.5 s and the Clotting time (sec) (2), citrated plasma; Fva 50 (1/10), PL 0, Ca 50 was 67 s. It also gave a Clotting time (sec) (2), citrated plasma; Fva 50 (1/10), PL 50, Ca 50 of 17.6 s, a Clotting time (sec) (2), citrated plasma; Fva 50 (1/100), PL 0, Ca 50 of 97.4 s and a Clotting time (sec) (2), citrated plasma; Fva 50 (1/100), PL 50, Ca 50 of 31 s. For the same substance, the Clotting time (sec) (2), citrated plasma; Fva 50 (1/1000), PL 0, Ca 50 was > 300 s, the Clotting time (sec) (2), citrated plasma; Fva 50 (1/1000), PL 50, Ca 50 was 67.7 s and the Clotting time (sec) (2), citrated plasma; Fva (A280 = 1.080) 10, PL 50, Ca 50 was 14.8 s. For the same substance, the Clotting time (sec) (2), citrated plasma; Fva (A280 = 1.080) 25, PL 50, Ca 50 was 13.8 s, the Clotting time (sec) (2), citrated plasma; Fva (A280 = 1.080) 50, PL 0, Ca 50 was 54.5 s and the Clotting time (sec) (2), citrated plasma; Fva (A280 = 1.080) 50, PL 50, Ca 0 was > 300 s. It also gave a Clotting time (sec) (2), citrated plasma; Fva (A280 = 1.080) 50, PL 50, Ca 50 of 12.8 s and a clotting time of re-calcified citrated whole blood with 20 nM APC and 280 nM snake venom FV (no APC: 505 seconds; APC alone: 1333 seconds) of 127 s.
